The record followed here is paper PMC9242963, “FFF-based high-throughput sequence shortlisting to support the development of aptamer-based analytical strategies”.

For this series, the target named is lysozyme (UniProt P00698 19-147). In words: AF4-UV (asymmetrical flow field-flow fractionation); concentration-dependent; among highest affinity with A80; PBS-Mg2+ buffer (also mobile phase; composition, pH and temperature not given in the material); 10 uL of 5 uM aptamer + 10 uL of 5, 10, 25 or 50 uM protein (1:1 to 1:10); detection at 260 nm; n = 3. The settings on record: protein: commercial; label: none.
lysozyme, sequence (P00698 19-147): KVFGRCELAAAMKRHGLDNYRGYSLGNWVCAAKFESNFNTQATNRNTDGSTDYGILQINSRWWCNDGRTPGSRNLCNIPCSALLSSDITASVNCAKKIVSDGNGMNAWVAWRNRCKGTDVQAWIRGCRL

Take GCAGCTAAGCAGGCGGCTCACAAAACCATTCGCATGCGGC (ssDNA) [A40]: the binding result was “binds”.
